Test results published in patent US20210238276A1 (INTEGRAL MOLECULAR, published 2021).

Tests used:
Assay in all cases: flow cytometry, alanine-scan library in HEK-293T, with cytochalasin B
[1] = target: T1, hsGLUT4 G356A (human, UniProt P14672 1-509)
T1 sequence: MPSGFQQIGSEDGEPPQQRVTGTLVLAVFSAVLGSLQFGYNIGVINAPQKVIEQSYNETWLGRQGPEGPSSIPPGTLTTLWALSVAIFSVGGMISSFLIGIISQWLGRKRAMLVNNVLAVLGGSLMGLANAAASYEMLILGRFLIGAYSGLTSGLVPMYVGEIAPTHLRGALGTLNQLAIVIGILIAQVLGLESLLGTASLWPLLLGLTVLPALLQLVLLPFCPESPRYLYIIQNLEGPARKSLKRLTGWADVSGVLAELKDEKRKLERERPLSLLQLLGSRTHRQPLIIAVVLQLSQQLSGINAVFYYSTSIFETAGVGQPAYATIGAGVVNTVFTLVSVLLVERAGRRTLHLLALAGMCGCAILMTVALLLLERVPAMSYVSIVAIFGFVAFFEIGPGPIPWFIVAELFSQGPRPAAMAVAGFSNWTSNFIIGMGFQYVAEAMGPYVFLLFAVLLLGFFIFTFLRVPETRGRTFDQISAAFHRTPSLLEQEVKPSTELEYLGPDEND
Outline: (§1)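 HEK-293T cells expressing individual GLUT4 alanine mutants were stained 48 h post-transfection with anti-GLUT4 scFv MAbs (2 μg/ml), then biotinylated secondary and streptavidin-PerCP, and read by high-throughput flow cytometry. Where used, cytochalasin B (10 uM final) was given for 30 min before and during primary antibody staining.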

[2] = target: T2, hsGLUT4 N508A (human, UniProt P14672 1-509)
T2 sequence: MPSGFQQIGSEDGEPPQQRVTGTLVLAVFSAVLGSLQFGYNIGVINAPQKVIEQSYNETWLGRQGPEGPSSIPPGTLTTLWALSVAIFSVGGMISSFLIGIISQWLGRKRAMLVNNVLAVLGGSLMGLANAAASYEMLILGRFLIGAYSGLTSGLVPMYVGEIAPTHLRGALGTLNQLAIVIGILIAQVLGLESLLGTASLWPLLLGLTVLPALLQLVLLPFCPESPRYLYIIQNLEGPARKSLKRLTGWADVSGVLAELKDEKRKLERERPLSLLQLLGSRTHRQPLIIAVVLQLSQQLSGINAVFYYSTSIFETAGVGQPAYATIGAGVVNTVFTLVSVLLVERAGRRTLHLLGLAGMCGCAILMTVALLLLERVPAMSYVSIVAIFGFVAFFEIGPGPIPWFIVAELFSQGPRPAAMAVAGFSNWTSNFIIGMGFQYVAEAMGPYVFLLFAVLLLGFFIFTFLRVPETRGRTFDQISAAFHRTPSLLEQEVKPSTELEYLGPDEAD
Outline: as §1

[3] = target: T3, hsGLUT4 P224A (human, UniProt P14672 1-509)
T3 sequence: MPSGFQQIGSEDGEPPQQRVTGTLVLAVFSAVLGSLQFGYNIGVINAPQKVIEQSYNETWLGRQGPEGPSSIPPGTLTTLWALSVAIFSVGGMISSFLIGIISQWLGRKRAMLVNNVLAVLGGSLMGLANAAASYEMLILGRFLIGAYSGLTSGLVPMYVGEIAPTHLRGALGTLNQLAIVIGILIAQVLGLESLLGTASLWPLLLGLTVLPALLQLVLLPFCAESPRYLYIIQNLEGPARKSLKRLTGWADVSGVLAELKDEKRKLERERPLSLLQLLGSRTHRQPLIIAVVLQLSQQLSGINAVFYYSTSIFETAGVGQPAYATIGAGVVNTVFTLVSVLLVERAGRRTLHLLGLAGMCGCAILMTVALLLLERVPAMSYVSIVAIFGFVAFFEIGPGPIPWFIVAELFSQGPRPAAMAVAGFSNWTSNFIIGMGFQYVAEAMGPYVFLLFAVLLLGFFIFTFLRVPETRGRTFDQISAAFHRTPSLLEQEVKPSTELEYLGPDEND
Outline: as §1

[4] = target: T4, hsGLUT4 M158A (human, UniProt P14672 1-509)
T4 sequence: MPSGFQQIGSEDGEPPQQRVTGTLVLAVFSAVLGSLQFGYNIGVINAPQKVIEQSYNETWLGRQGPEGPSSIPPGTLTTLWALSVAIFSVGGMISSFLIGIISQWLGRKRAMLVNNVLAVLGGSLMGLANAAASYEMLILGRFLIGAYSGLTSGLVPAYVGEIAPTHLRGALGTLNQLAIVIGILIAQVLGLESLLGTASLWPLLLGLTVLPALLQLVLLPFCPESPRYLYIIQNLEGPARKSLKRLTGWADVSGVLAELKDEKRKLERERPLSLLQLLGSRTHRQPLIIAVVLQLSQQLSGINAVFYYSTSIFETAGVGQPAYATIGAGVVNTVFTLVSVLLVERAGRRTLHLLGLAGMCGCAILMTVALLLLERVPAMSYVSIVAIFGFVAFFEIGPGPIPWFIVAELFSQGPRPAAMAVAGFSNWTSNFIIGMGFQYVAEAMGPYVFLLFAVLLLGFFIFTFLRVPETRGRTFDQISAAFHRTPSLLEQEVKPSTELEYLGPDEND
Outline: as §1

% of binding to wild type GLUT4 [1]: 72%
% of binding to wild type GLUT4 [2]: 70%
% of binding to wild type GLUT4 [3]: 29%
% of binding to wild type GLUT4 [4]: 85%
B1: AB102 (Fc fusion)
scFv: ALTQPSSVSANLGGTVKITCSGGGSYGYGWYQQKSPGSAPVTVIYSNDQRPSDIPSRFSGSKSGSTATLTITGVRAEDEAIYYCGSTDSDYVGIFGAGTTLTVLGQSSRSSGGGGSSGGGGSAVTLDESGGGLQTPGGTLSLVCKASGFDFSSYATIWVRQAPGKGLEWVAGISGTGTGSSTGYAPAVKGRATISRDNGQSTVRLQLNNLRAEDTGSYFCAKSTGYGDSWIYPDSIDAWGHGTEVIVSS
notes: also called MAb AB102; not shown: Fc fragment of human IgG1, cloned in frame with the scFv
